Source: publication PMC6652776

How the values were obtained:
[1] = target: PE-PilA fusion protein (version used in solution and ELISA experiments) (nontypeable Haemophilus influenzae strain 772 | nontypeable Haemophilus influenzae strain 86-028NP); test: AUC; sedimentation velocity, 25,000 rpm, AN-60Ti rotor, 15°C, absorbance at 280 nm, c(S) model in Sedfit
[2] = target: protein E (PE), recombinant, isolated (nontypeable Haemophilus influenzae strain 772); test: as above

Substance | stoichiometry N [1] | stoichiometry N [2]
PE-PilA fusion protein (version used in solution and ELISA experiments) | 2 | 
protein E (PE), recombinant, isolated (domain or fragment) |  | 2
